How the values were obtained:
Test in all cases: co-IP with anti-FLAG, mass spectrometry; lysate of cells with N-FLAG B3GNT2
RRP12 = target: T1, RRP12 (human, UniProt Q5JTH9-3 1-1236, limits assumed)
T1 construct: also called NP_001138586.1 (+4)
T1 sequence (looked up): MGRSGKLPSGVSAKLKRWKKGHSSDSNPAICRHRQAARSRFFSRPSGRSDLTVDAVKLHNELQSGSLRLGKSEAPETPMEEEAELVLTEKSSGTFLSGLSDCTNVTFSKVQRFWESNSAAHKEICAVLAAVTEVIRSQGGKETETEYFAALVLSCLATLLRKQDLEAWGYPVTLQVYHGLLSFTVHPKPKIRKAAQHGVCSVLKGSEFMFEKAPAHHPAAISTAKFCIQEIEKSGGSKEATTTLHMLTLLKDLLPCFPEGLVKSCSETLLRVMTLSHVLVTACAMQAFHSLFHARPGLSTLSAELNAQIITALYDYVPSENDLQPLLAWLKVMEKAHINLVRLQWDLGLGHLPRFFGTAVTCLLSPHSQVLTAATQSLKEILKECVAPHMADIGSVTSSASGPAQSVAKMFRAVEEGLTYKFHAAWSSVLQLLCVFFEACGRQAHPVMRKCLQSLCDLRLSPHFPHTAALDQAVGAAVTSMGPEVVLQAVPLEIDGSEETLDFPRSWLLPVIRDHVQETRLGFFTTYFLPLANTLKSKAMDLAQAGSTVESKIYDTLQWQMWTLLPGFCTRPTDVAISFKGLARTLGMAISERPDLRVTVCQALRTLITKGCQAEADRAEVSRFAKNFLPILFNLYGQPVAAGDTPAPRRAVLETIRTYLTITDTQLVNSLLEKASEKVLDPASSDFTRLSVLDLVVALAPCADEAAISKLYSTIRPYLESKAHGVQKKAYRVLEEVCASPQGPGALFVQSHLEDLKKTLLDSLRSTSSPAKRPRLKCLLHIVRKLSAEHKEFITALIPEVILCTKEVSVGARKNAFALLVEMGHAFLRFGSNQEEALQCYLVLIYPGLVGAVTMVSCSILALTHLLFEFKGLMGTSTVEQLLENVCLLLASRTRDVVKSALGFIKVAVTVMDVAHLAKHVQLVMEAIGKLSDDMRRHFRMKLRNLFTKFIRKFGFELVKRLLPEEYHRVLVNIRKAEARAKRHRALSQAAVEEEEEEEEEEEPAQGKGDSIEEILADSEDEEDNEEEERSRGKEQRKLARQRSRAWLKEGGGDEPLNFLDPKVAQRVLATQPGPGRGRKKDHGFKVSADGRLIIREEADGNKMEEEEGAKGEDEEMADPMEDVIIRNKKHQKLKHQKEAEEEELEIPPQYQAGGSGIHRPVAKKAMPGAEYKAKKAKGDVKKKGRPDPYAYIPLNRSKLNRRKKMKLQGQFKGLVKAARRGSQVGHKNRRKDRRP
Procedure: (§1) Cells were plated in 10-cm cell culture dishes and grown to 60-80% confluency. For each condition, two biological replicates were harvested for co-IP. Cells were washed with PBS and 4 mL of lysis buffer (20 mM HEPES, 1% Triton X-100, 150 mM NaCl, 1 mM EDTA, and 10% glycerol) containing protease inhibitor cocktail was added. Cells were scraped and lysate was incubated at 4° C. under rotary agitation for 1 h. Lysate was centrifuged at 14,000×g for 10 min at 4° C. Supernatant was transferred to a new tube and an aliquot was taken as the input. […] For Western blots, 10 μg/mL Chicken Anti-FLAG (Aves labs ET-DY100) and IgY control (R&D Systems AB-101-C) antibodies were biotinylated (Thermo Fisher Scientific 90407) and added to the respective conditions. Lysates with antibodies were incubated at 4° C. under rotary agitation overnight. For each mL of lysate, 50 μL of Pierce Protein A/G Magnetic Beads (Mass spectrometry; Thermo Fisher Scientific 88803) or Pierce Streptavidin Magnetic Beads (Western blot; Thermo Fisher Scientific 88817) was washed twice with lysis buffer. Lysates with antibodies were added to the beads and incubated at 4° C. under rotary agitation for 4 h. Beads were washed with lysis buffer 3 times and resuspended in lysis buffer for storage.
(§2) Magnetic beads were resuspended in 100 mM Tris pH 7.8, reduced, alkylated and digested with trypsin at 37° ° C. overnight. This solution was subjected to solid phase extraction to concentrate the peptides and remove unwanted reagents followed by injection onto a Shimadzu HPLC with fraction collector. Eight fractions were collected and after concentration were injected on a Waters NanoAcquity HPLC equipped with a self-packed Aeris 3 μm C18 analytical column 0.075 mm by 20 cm, (Phenomenex). Peptides were eluted using standard reverse-phase gradients. The effluent from the column was analyzed using a Thermo Orbitrap Elite mass spectrometer (nanospray configuration) operated in a data dependent manner for 54 minutes. The resulting fragmentation spectra were correlated against the known database using Proteome Discover 1.4 (Thermo Fisher Scientific).

CCT7 = target: T2, CCT7 (human, UniProt Q99832-3 1-499, limits assumed)
T2 construct: also called NP_001159757.1 (+1)
T2 sequence (looked up): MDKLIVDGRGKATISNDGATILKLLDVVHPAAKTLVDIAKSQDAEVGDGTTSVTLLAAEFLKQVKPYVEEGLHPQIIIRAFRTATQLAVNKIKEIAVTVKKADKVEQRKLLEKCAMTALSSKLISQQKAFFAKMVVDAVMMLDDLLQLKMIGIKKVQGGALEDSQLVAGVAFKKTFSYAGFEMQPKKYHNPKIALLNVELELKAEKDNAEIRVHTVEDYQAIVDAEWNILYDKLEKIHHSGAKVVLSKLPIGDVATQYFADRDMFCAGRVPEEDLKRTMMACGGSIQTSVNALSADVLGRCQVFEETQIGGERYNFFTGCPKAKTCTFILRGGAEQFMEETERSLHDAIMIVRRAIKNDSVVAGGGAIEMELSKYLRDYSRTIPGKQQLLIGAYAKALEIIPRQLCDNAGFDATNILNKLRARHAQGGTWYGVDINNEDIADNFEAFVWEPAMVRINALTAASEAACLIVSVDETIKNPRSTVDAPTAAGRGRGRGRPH
Procedure: as §1, §2

CTHRC1 = target: T3, CTHRC1 (human, UniProt Q96CG8-3 1-229, limits assumed)
T3 construct: also called NP_001243028.1 (+1)
Procedure: as §1, §2

RPL32 = RPL32 (human, UniProt P62910 2-135)
Procedure: as §1, §2

Measured: co-IP mass spectrometry count

T3 sequence (Q96CG8 other isoform, or with tags, fused parts or gaps limits assumed): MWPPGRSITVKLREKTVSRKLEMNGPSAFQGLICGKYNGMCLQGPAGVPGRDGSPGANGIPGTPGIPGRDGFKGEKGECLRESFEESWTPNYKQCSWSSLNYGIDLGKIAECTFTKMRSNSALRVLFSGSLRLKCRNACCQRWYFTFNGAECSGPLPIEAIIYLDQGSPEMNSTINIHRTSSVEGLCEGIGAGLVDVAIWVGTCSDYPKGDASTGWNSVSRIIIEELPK

B1: N-terminal FLAG tagged B3GNT2 (enzyme, human, UniProt Q9NY97 1-397, looked up)
chain: MSVGRRRIKLLGILMMANVFIYFIMEVSKSSSQEKNGKGEVIIPKEKFWKISTPPEAYWNREQEKLNRQYNPILSMLTNQTGEAGRLSNISHLNYCEPDLRVTSVVTGFNNLPDRFKDFLLYLRCRNYSLLIDQPDKCAKKPFLLLAIKSLTPHFARRQAIRESWGQESNAGNQTVVRVFLLGQTPPEDNHPDLSDMLKFESEKHQDILMWNYRDTFFNLSLKEVLFLRWVSTSCPDTEFVFKGDDDVFVNTHHILNYLNSLSKTKAKDLFIGDVIHNAGPHRDKKLKYYIPEVVYSGLYPPYAGGGGFLYSGHLALRLYHITDQVHLYPIDDVYTGMCLQKLGLVPEKHKGFRTFDIEEKNKNNICSYVDLMLVHSRKPQEMIDIWSQLQSAHLKC
notes: Bait of the co-IP; pulled down with mouse anti-FLAG (Millipore Sigma F3165) from cell lysate; also called N-FLAG B3GNT2; N-term FLAG; not shown: N-terminal FLAG tag
0: all assays above

Source: US20240261333A1 (published 2024)
